The target in one test is T1, M5-1.
T1 construct: also called PD1 mutant M5-1
Put plainly: ELISA, 1 ug/ml. (An ELISA detects its analyte on a solid surface through an enzyme-linked reagent.)

A further test concerns the target T2, M7-2.
T2 construct: also called PD1 mutant M7-2
Put plainly: ELISA, 1 ug/ml.

The next test deals with T3, M3.
T3 construct: also called PD1 mutant M3
Put plainly: ELISA, 1 ug/ml.

In another test the target is T4, M1-1.
T4 construct: also called PD1 mutant M1-1
Put plainly: ELISA, 1 ug/ml.

The target of a further test is T5, M12.
T5 construct: also called PD1 mutant M12
Put plainly: ELISA, 1 ug/ml.

The next test addresses T6, M7.
T6 construct: also called PD1 mutant M7
Put plainly: ELISA, 1 ug/ml.

A further test has as its target T7, M5-2.
T7 construct: also called PD1 mutant M5-2
The experiment in a line: ELISA, 1 ug/ml.

The next test concerns the target T8, C2orf28 (Homo sapiens (Human), UniProt Q6UW56 31-199).
T8 sequence: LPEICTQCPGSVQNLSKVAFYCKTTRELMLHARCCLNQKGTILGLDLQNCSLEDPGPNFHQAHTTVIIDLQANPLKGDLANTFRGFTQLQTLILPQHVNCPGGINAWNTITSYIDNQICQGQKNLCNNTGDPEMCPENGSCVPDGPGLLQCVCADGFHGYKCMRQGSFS
Put plainly: ELISA.

The next test has as its target CDCP1 (Homo sapiens (Human), UniProt Q9H5V8 30-667). The experiment in a line: ELISA.
The target of the next test is T9, SPARC (Homo sapiens (Human), UniProt P09486 18-303).
T9 sequence: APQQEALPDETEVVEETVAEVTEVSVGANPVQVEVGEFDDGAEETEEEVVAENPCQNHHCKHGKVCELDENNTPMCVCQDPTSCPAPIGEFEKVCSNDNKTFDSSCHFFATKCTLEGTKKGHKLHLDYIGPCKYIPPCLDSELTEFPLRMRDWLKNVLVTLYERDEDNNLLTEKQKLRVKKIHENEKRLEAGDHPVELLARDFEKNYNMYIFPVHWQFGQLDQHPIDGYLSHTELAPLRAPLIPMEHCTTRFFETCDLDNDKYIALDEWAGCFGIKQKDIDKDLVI
The experiment in a line: ELISA.

The target in another test is T10, OGN (Homo sapiens (Human), UniProt P20774 21-298).
T10 sequence: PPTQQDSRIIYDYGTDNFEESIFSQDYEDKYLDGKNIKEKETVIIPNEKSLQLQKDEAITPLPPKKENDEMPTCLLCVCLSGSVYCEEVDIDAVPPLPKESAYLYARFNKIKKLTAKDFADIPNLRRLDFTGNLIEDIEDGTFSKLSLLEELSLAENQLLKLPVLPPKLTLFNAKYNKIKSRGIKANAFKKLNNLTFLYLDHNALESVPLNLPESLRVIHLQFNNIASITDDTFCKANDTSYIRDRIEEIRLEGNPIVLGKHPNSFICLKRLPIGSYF
Put plainly: ELISA.

The target of a further test is T11, GREM1 (Homo sapiens (Human), UniProt O60565 25-184).
T11 sequence: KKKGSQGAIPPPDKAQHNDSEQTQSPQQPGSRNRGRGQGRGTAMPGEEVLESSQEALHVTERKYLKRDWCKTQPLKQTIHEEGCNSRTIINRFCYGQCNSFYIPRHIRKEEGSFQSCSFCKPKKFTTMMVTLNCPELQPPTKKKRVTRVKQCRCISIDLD
Put plainly: ELISA.

The target in a further test is T12, DNER (Homo sapiens (Human), UniProt Q8NFT8 35-640).
T12 sequence: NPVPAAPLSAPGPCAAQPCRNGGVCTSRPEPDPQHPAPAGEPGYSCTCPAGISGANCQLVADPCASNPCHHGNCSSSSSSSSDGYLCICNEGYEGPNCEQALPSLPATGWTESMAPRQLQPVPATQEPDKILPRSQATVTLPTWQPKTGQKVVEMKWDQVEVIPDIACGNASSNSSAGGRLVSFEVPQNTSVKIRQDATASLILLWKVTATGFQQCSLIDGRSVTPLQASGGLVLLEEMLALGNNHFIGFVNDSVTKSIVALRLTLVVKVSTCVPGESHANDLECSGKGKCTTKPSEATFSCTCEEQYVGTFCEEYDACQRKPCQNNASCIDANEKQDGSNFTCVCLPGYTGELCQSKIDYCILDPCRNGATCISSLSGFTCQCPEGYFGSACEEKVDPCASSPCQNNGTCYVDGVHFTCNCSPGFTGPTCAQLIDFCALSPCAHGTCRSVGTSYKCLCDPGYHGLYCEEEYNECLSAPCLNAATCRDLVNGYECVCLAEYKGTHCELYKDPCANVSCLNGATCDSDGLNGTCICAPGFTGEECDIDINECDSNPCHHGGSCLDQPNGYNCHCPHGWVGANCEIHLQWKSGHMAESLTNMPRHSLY
Put plainly: ELISA.

The target in a further test is T13, ICOSLG (Homo sapiens (Human), UniProt O75144 19-256).
T13 sequence: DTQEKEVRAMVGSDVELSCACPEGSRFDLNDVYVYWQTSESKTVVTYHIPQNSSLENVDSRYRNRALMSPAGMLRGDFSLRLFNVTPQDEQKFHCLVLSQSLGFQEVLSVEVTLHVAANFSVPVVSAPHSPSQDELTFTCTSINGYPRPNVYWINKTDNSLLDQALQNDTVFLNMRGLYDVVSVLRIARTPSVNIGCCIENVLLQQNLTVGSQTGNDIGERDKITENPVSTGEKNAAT
The experiment in a line: ELISA.

Another test deals with TNF (Homo sapiens (Human), UniProt P01375 77-233). Put plainly: ELISA.
Sequence of TNF (P01375 77-233 limits assumed): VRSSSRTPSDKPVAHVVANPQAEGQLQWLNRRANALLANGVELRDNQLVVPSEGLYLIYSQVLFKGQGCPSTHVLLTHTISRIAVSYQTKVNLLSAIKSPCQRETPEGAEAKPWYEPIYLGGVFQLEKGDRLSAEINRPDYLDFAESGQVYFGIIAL
The target in a further test is T14, CD209 (Homo sapiens (Human), UniProt Q9NNX6 59-404).
T14 sequence: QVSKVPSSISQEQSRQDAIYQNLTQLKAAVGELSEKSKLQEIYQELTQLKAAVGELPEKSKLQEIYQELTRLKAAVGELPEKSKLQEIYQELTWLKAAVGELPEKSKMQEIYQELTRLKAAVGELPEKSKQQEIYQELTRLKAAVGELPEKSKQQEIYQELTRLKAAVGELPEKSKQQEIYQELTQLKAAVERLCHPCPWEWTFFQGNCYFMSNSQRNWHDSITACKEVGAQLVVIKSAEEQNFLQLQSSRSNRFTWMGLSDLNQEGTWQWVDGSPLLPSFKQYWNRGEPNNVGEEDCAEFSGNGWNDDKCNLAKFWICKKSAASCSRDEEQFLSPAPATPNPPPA
Put plainly: ELISA.

Sequence of CDCP1 (Q9H5V8 30-667 limits assumed): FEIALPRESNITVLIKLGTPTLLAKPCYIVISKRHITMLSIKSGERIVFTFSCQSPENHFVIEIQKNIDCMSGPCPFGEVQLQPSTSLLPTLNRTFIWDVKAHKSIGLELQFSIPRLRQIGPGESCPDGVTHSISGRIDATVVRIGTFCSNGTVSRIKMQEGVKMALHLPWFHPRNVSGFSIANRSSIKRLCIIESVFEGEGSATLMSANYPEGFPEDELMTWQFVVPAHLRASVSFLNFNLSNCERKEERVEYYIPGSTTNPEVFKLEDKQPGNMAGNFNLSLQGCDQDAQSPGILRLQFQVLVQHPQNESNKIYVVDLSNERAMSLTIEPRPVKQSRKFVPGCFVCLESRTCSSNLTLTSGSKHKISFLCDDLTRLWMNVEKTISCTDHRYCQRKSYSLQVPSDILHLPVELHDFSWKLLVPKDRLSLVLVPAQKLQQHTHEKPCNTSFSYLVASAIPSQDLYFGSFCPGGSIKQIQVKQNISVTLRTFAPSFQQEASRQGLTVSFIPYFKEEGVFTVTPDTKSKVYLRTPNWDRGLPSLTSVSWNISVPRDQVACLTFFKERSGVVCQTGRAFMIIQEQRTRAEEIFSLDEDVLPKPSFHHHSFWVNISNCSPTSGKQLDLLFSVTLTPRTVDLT

B1: PD1-52E8 (antibody, V domains shown)
VH: QVQLVQSGGNLVQPGRSLRLSCAASGFTFDDYAMHWVRQAPGKGLEWVSGISWNSGTPGYADSVQGRFTISRDNAKNSLYLQMNSLRAEDTAVYYCARGHNYLDSSYYDYWGQGTLVTVSS
VL: SYELTQPLSLSVAPGQTARITCSGDALSKEYSYWYQQKPGQAPVLVMYKDSERPSGIPERFSGSSSGTTVTLTISGVQAEDEADYYCQSVDSSDTSVVFGGGTKLTVL
notes: scFv-phage in the screening ELISA; whole IgG in the other assays
Regarding B1, the OD490 in the test with M5-1 is 0.3; with M7-2, 3.9; in the test with M3, 1.5; with M1-1, 1.5; in the test with M12, 3.2; in the test with M7 it was 1. Besides, the OD490 with M5-2 stood at 3.5.

B2: PD1-41C9 (antibody, V domains shown)
VH: QMQLVESGGGVVQPGRSLRLSCAASGFTFSSYAMHWVRQAPGKGLEWVAVISYDGSNKYYADSVKGRFTISRDNSKNTLYLQMNRLRSEDTAVYYCTTTTFDSWGQGTLITVSS
VL: DIVMTQTPLSLPVTPGEAASISCRSSQSLLDSEDGNTYLDWYLQKPGQSPQLLIYTLSHRASGVPDRFSGSGSGTDFTLKISRVAAEDVGLYYCLQRMGFPYTFGQGTKLDIK
notes: as for B1
B2: the OD490 with M5-1 is 2.8; in the test with M7-2 it was 3; in the test with M3 it was 2.3; with M1-1, 3.1; with M12, 3.1; with M7 it was 0.8. The OD490 with M5-2 turned out to be 3.6. The binding result with C2orf28, in the test with CDCP1, with SPARC, with OGN, in the test with GREM1 and with DNER was “no binding (tested: 1 ug/ml)” throughout. In addition, the binding result with ICOSLG, with TNF and with CD209 was “no binding (tested: 1 ug/ml)” in each case.

B3: PD1-49A2 (antibody, V domains shown)
VH: QVQLVESGGGVVQPGRSLRLSCAASGFTFSSYAMHWVRQAPGKGLEWVAVISYDGSNKYYADSVKGRFTISRDNPKNTLYLQMNSLRAEDTAVYYCTTTTFDSWGRGTLVTVSS
VL: DIVMTQSPLSLPVTPGEPASISCRSSQSLFDSDDGNTYLDWYLQKPGQSPQLLIYTLSHRASGVPDRFSGSGSGTDFTLKISRVEAEDVGIYYCLQRMGFPYTFGQGTKVEIK
notes: scFv-phage in the screening ELISA; whole IgG in the other assays; also called Parent 49A2
Take B3: the OD490 with M5-1 worked out at 0.7; with M7-2 it was 2.2; with M3 it was 3.4; with M1-1, 3.4; with M12, 3.9; in the test with M7 it was 0.4. The molecule also returned an OD490 with M5-2 of 3.8. Further, the binding result in the test with C2orf28, with CDCP1, in the test with SPARC, with OGN, with GREM1 and with DNER was “no binding (tested: 1 ug/ml)” each time. Moreover, the binding result with ICOSLG, with TNF and with CD209 was “no binding (tested: 1 ug/ml)” throughout.

B4: PD1-45D6 (antibody, V domains shown)
VH: QVQLVESGGGVVQPGRSLRLSCAASGFTFSSYAMHWVRQVPGKGLEWVAVISYDGNDKYYADSVKGRFTISRDNSKNTLYLQMNSLRAEDTAVYYCVPTTFEYWGQGSQVTVSS
VL: DIVMTQTPLSLPVTPGEAASISCRSSQSLLDSDDGKTYLDWYLQKPGQSPQLLIYTLSYRASGVPDRFSGSGSGTEFNLRISRVEAEDVGIYYCMQRVEFPFTFGQGTKLDIK
notes: as for B1
On to B4, for which the OD490 with M5-1 is 3.8; with M7-2, 4; with M3, 3.8; with M1-1 it was 3.8; with M12, 3.9; with M7, 0.5. The same molecule returned an OD490 with M5-2 of 3.9. The binding result in the test with C2orf28, in the test with CDCP1, in the test with SPARC, with OGN, with GREM1 and in the test with DNER was “no binding (tested: 1 ug/ml)” in each case. Also, the binding result with ICOSLG, in the test with TNF and with CD209 was “no binding (tested: 1 ug/ml)” each time.

Source of the values: US20190248900A1 (Y BIOLOGICS, published 2019).
